In the RNAGym collection of RNA variant scans (doi:10.1073/pnas.2313332121):
This sample holds only a part of the variants without activity.

B1: TPR 5TU (parent)
chain: GGAUCUUCUCGAUCUAACAAAAAAGACAAAUCUGCCACAAAGCUUGAGAGCAUCUUCGGAUGCAGAGGCGGCAGCCUUCGGUGGCGCGAUAGCGCCAACGUUCUCAACUAUGACACGCAAAACGCGUGCUCCGUUGAAUGGAGUUUAUCAUG

Variants of: B1
Experiment: polymerase ribozyme fitness, log enrichment relative to wild type (log ratio); higher = more active; in vitro selection for triplet polymerase activity
Summary of the method: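 Mutant libraries were PCR-built and transcribed for each subunit of a heterodimeric triplet polymerase ribozyme and selected for one round in triplicate at −7 °C, frozen, before gel excision of extended constructs and streptavidin-bead capture. Input and output libraries were Illumina-sequenced, keeping genotypes with ≥10 input reads and ≥1 read per output. Fitness is a logarithmic ratio of genotype to wild-type enrichment, in base 2, using inverse-variance-weighted replicate averages.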
For C14U G59A C85U U134A, the “polymerase ribozyme fitness (log ratio)” value was -4.12. In the case of U15C C93G, the “polymerase ribozyme fitness (log ratio)” value is reported as -2.27. In the case of C14U G92C A150U, the “polymerase ribozyme fitness (log ratio)” value is reported as -4.2. For U15A G74U C79G, the “polymerase ribozyme fitness (log ratio)” value was no more than -4.2. In the case of C14U G62C C75A C93G, the “polymerase ribozyme fitness (log ratio)” value is reported as no more than -4.2. In the case of C14U G58C C85U A89G G136A, the “polymerase ribozyme fitness (log ratio)” value is reported as -3.44. For U15A C36U C87U G124U A137C, the “polymerase ribozyme fitness (log ratio)” value was -4.03. In the case of U15A A19U C57G G86A, the “polymerase ribozyme fitness (log ratio)” value is reported as -1.7. For U15C A22G, the “polymerase ribozyme fitness (log ratio)” value was 1.56. With C14U U145A the “polymerase ribozyme fitness (log ratio)” value was -1.55. In the case of C14U G67A U151C, the “polymerase ribozyme fitness (log ratio)” value is reported as no more than -4.2. In the case of U15A C38A A41C C75U U135C, the “polymerase ribozyme fitness (log ratio)” value is reported as -3.63. With C14U C57U the “polymerase ribozyme fitness (log ratio)” value was -1.27. With U15C G34C C57A G84U A98U the “polymerase ribozyme fitness (log ratio)” value was -2.33. With U15G A17G C38A G62C G81A C85G the “polymerase ribozyme fitness (log ratio)” value was no more than -4.2. In the case of C14U C63U C85A A115G, the “polymerase ribozyme fitness (log ratio)” value is reported as -3.56. For U15C A21C G48C C93U U146G, the “polymerase ribozyme fitness (log ratio)” value was -0.835. With U15A A73C G94A the “polymerase ribozyme fitness (log ratio)” value was -3.39. With U15A A22G C36A C72U C85U C132U the “polymerase ribozyme fitness (log ratio)” value was no more than -4.2. For U15A A29G U78A G88A G126U U135G U148G, the “polymerase ribozyme fitness (log ratio)” value was no more than -4.2. With U15C C75A C96G the “polymerase ribozyme fitness (log ratio)” value was no more than -4.2. In the case of U15C A26U C57G G59U C87A G88A A107U U148G, the “polymerase ribozyme fitness (log ratio)” value is reported as no more than -4.2. In the case of U15A A19C A29U G50A C95U A142U, the “polymerase ribozyme fitness (log ratio)” value is reported as no more than -4.2. For C14U U56G G83U C95U C116U, the “polymerase ribozyme fitness (log ratio)” value was -3.87. With U15C U53A A98G C105G U146G the “polymerase ribozyme fitness (log ratio)” value was no more than -4.2. For U15A A60G G80U C96U A122C, the “polymerase ribozyme fitness (log ratio)” value was -1.4. With C14U C87U U101C C118G the “polymerase ribozyme fitness (log ratio)” value was -3.29. For U15C A21C U56C G83A, the “polymerase ribozyme fitness (log ratio)” value was -0.11. For U15A A47G U56A C57U G124C C149U, the “polymerase ribozyme fitness (log ratio)” value was -2.48. In the case of U15G A20U A37G U45A G50C G70U C95U C118G G141C A147C G152A, the “polymerase ribozyme fitness (log ratio)” value is reported as no more than -4.2. With U15A A142C the “polymerase ribozyme fitness (log ratio)” value was -0.894. With U15G A19U A20U A29G U56A C57A C63U G94A U145G the “polymerase ribozyme fitness (log ratio)” value was no more than -4.2. In the case of U15G A21C A49C C54U G86A, the “polymerase ribozyme fitness (log ratio)” value is reported as no more than -4.2. For C14U U45A A91U U127G, the “polymerase ribozyme fitness (log ratio)” value was no more than -4.2. For U15C G84C C125U U134G A150U, the “polymerase ribozyme fitness (log ratio)” value was no more than -4.2. With U15C C38A U61A C87U A122G the “polymerase ribozyme fitness (log ratio)” value was -2.73. For U15C C35G A39U A73G G83C G100A A107G C125A G141U, the “polymerase ribozyme fitness (log ratio)” value was no more than -4.2. In the case of U15G A16C A30C A47C C85A G133C G143C A150U, the “polymerase ribozyme fitness (log ratio)” value is reported as no more than -4.2. With U15A A26C G34U C105G G143C the “polymerase ribozyme fitness (log ratio)” value was no more than -4.2. In the case of C14U C93A, the “polymerase ribozyme fitness (log ratio)” value is reported as -3.4. With C14U C85U the “polymerase ribozyme fitness (log ratio)” value was -1.65. With U15A A29C C38U A119U G126A U144A C149G the “polymerase ribozyme fitness (log ratio)” value was no more than -4.2. In the case of C14U C96A, the “polymerase ribozyme fitness (log ratio)” value is reported as -1.59. For U15C A16G G59U A60G G92A C116U, the “polymerase ribozyme fitness (log ratio)” value was -0.967. In the case of U15C U55G, the “polymerase ribozyme fitness (log ratio)” value is reported as 0.263. In the case of U15A U55A G88C U145G, the “polymerase ribozyme fitness (log ratio)” value is reported as -3.86. In the case of C14U G67A G88A G136U, the “polymerase ribozyme fitness (log ratio)” value is reported as no more than -4.2. For C14U U15C A23U A41U C85A, the “polymerase ribozyme fitness (log ratio)” value was no more than -4.2. For C14U G83U G88C A147G, the “polymerase ribozyme fitness (log ratio)” value was no more than -4.2. For U15C C54A G62A U78A G88C A113C A150U, the “polymerase ribozyme fitness (log ratio)” value was no more than -4.2. In the case of U15A G50U C95U C99G C105U A115G A150C, the “polymerase ribozyme fitness (log ratio)” value is reported as no more than -4.2. With U15A C51U G86U the “polymerase ribozyme fitness (log ratio)” value was -1.69. For U15C A19C C85U C87U, the “polymerase ribozyme fitness (log ratio)” value was 0.246. In the case of U15G A20U G25U C87U C103G U104G A121G G126U U134C C149A, the “polymerase ribozyme fitness (log ratio)” value is reported as no more than -4.2. With C14U C57G C85U G152A the “polymerase ribozyme fitness (log ratio)” value was -3.89. In the case of C14U G50C, the “polymerase ribozyme fitness (log ratio)” value is reported as -3.52. In the case of C14U G50U, the “polymerase ribozyme fitness (log ratio)” value is reported as -1.15. With C14U G94C A107G G117A A142U the “polymerase ribozyme fitness (log ratio)” value was no more than -4.2. In the case of U15A A26C, the “polymerase ribozyme fitness (log ratio)” value is reported as -1.44. For U15A G94A, the “polymerase ribozyme fitness (log ratio)” value was -0.258. For C14U C93U U127A C131A, the “polymerase ribozyme fitness (log ratio)” value was no more than -4.2. In the case of C14U C85A G140A, the “polymerase ribozyme fitness (log ratio)” value is reported as no more than -4.2. For U15G A17C C27G C51A G59A C75U C87U, the “polymerase ribozyme fitness (log ratio)” value was no more than -4.2. With C14U C105G the “polymerase ribozyme fitness (log ratio)” value was -3.25. With C14U U15G U45A G58U C75G U135C the “polymerase ribozyme fitness (log ratio)” value was no more than -4.2. With U15C C38U G86U A91U G126U U134G A142G the “polymerase ribozyme fitness (log ratio)” value was no more than -4.2. With U15A A17C C32G A60G C99U C116U the “polymerase ribozyme fitness (log ratio)” value was no more than -4.2. In the case of U15C A26C C36U G84A A147U, the “polymerase ribozyme fitness (log ratio)” value is reported as -3.47. For C14U G84U A107U A147U, the “polymerase ribozyme fitness (log ratio)” value was no more than -4.2. With U15A G50U G86A C114U the “polymerase ribozyme fitness (log ratio)” value was -3.13. In the case of U15A C32A U56G G58U G84U C108U U139G, the “polymerase ribozyme fitness (log ratio)” value is reported as no more than -4.2. In the case of C14U C72A C85G G133U, the “polymerase ribozyme fitness (log ratio)” value is reported as no more than -4.2. For C14U G46A C54A C132A, the “polymerase ribozyme fitness (log ratio)” value was no more than -4.2. In the case of U15C A23C A30G U44A G70A C87A G141C, the “polymerase ribozyme fitness (log ratio)” value is reported as no more than -4.2. For U15C C93U A122U, the “polymerase ribozyme fitness (log ratio)” value was -0.873. In the case of U15G A17U C79G G80A G81U G92A G124A A147U, the “polymerase ribozyme fitness (log ratio)” value is reported as no more than -4.2. With C14U C87A the “polymerase ribozyme fitness (log ratio)” value was no more than -4.2. In the case of C14U C87U, the “polymerase ribozyme fitness (log ratio)” value is reported as -2.18. With U15A A39G U53A A73U C85U G124U U134C U135C the “polymerase ribozyme fitness (log ratio)” value was no more than -4.2. With U15A G50U C95G C132G the “polymerase ribozyme fitness (log ratio)” value was no more than -4.2. In the case of U15C A19C A91U, the “polymerase ribozyme fitness (log ratio)” value is reported as -3.68. For U15G A20C G42U A52G C85U C93G C103A, the “polymerase ribozyme fitness (log ratio)” value was no more than -4.2. For U15A C63U U151A, the “polymerase ribozyme fitness (log ratio)” value was -3.9.
